Test results taken from patent US20210388105A1 (ELPISCIENCE SUZHOU BIOPHARMA, published 2021).

Target: T1, human CD39 (protein; form not stated) (human, UniProt P49961 38-478, limits assumed)
T1 construct: also called ENTPD1; ENTPDase 1
T1 sequence: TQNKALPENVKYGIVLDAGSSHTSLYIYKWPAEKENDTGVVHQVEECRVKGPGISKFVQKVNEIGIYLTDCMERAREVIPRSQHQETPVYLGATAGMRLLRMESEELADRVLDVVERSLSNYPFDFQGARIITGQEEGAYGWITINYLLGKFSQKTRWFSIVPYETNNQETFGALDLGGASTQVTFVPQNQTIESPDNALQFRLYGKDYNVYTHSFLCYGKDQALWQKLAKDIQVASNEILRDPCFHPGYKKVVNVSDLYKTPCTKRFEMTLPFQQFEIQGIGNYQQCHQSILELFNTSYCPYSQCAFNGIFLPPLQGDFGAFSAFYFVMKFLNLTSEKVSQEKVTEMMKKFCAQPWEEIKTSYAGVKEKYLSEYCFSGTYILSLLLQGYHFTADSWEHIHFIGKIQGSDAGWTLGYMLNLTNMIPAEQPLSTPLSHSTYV
Experiment: Octet (BLI)

B1: mAb14 (antibody, V domains shown)
VH: EVKLEESGGGLVQPGGSMKLSCVASGFTFSKYWMNWVRQSPEKGLEWVAEIRLKSNKYGTHYAESVKGRFTISRDDSKNNVYLQMNNLRPEDTGIYYCTTQLDLYWFFDVWGAGTTVTVSS
VL: DIVMTQSPAILSVTPGDRVSLSCRASQSISDYLHWYQQKSHESPRLLIKYASQSISGIPSRFSGSGSGSNFTLSINSVEPEDVGVYFCQNGHSLPLTFGAGTKLELR
notes: mouse hybridoma antibody
Kd: 0.24 nM
